# Reference: the DeepSol protein solubility set
# Test: soluble on expression in E. coli; label from the status in PepcDB or PDB records
row,Sequence,soluble on expression in E. coli
1,MLNDVFILTQIKEGNIKAFETLFRQYYTPLRLYAASITGVPDVAEEIVEELFYVFWKDREKLEIFHSVKNYLYRSVRNRSIQYCEHQDVKRRYQDAILSVPVNIASPDPQEQIEYKELQQIINRTLEKLPERRLHIFRLHHTEGKKYSEIASLLSLSVKTVEKEMTRALRTLRKEIENYIQIS,not soluble
2,MQSINLPVDHSKIDANFEGYKVSMNNVHFSSKSLDQNLCLRAPSNEMITLQHMKVFSNDNQLFCDYSKCTDSQQFLYRILDTGHIQAMVYEKKTQIWNTSIVGSIDVGTNASSAFPTNLLFTENNLVVACNGISEITVFLAVSDSNWVKMLEHKVSEQGLSLIEARILNGKLNILAYHVESDDSKKTRSRIHSIRINLDDIDYADSLTVEKSMDLIQNGHFETCTFTNNGEIIFLSSEKPHVEGQQEDMEEKATSGQSKPKPTIEEQSRYLVDIKQLITPFDGDASNYLLFKSTFDYLVHNNHFLEINMKNVALVNALTGDAKQFIVTSNIMEMGYKLTLENLEWTFNRPGFQMRLHSEMLERIKFDENDYSQMETALIKYCSIAREIQLWCGQLFTLFGFHRRITGCDRAQMEHSWEQTGNIIQVAFKLKSEISKEDVKIDTTKTGIRLIVKDLTLLSGKLSGEIDENDVEICADQKTNSLKLKLKSIDDKKWEKLISVEYDTLKSLEDSEIKRTMKGEQVIESDEPMEECDETEGSMAFYWVDQESGKVLKQCDVSGSQVLFTSRQSSTSPALICLRHDVDGLLWSFDESAPSHVATLQAFGYVQASKTSRLWSGCSPNKSLACIVEGNNRVLLYSQKVEVSGSLSNRKTSQTVSHVSKQHLLRVECSDPIRGVQLTDTHLFAATKSHIHVAELNL,not soluble
3,EKALSKQYLQTAKDKITSLKNLKVIAITGSFGKTSTKNFLLQILQTTFNAHASPKSVNTLLGLANDINQNLDDRSEIYIAEAGARNKGDIKEITCLIEPHLVVVAEVGEQHLEYFKTLENICETKAELLDSKRLEKAFCYSVEKIKPYAPKDSPLIDYSSLVKNIQSTLKGTSFEMLIGSVWERFETKVLGEFSAYNIASAILIAKHLGLETERIKRLVLELNPIAHRLQLLEVNQKIIIDDSFNGNLKGMLEGIRLASLHKGRKVIVTPGLVESNTESNEALAQKIDGVFDVAIITGELNSKTIASQLKTPQKILLKDKAQLENILQATTIQGDLILFANDAPNYI,not soluble
4,MLDLIDSAKESVWIVSPYFVPDEEALAVIRRVAMSGVDVRVIIPGKGDRGISFHGSNAYVKTMIEAGAKMYAYADDSFVHAKAMLVDGTRAAIGTANFDVRSFRLNHELMVFLYDESEAMLHLKRDFKKDFEDSRLFTMKDMENKPLLTRIKEVLSSLLSPIL,not soluble
5,EIRLSNTQQTYAFLKKRLRDYKNETFAALFLDNQHRIIAYEELFSGTINTATVYPRPIVERVLQLNAAALILAHNHPSGLSDASQQDLAITERIRDALDLVDARLLDHIVIGDNEVYSIFAENKWVCN,not soluble
6,MSYYLVQSTDEDILKHAECGGAVTAFFKYLLDKKLVDGVLALKKGEDVYDGLPYLVNDSKELVETCGSLHCAPTMFGNMISKHLKDMNLAVSVKPCDAMAIVELEKRHQIDKDKLYTIGLNCGGTVPPQTAKKMIELFYDVDPEDVIKEEIDKGKFIIELKDGSEKSVKIDELEEEGYGRRTNCQRCELKVPRNSDLACGNWGTEKGWTFVEVGSEKGEELLKNAQKEGYINVKAPSEKALEIRGKIEKSMINLGKKFQKEQLDEKYPEPEKWDEYWSRCIKCYGCRDVCPICFCKECALGEDYLDKGTIPPDPIMFQGIRLSHMSFSCINCGQCEDVCPVEIPLAKIYHRAQLKIRETTGFVPGIDDSMPFLYKLEHHHHHH,not soluble
7,MSLKIEPCLPMKILIVEDDPLMQLGLEQALGAHERFEIIGRVDNGYGAVQQAAVLNPDLIVMDIGLPGLDGIEATKQIKQTSPQIHIVVLTSHTLPNEIIAALSSGADAYCVKGATLERLILAIAAAQDGATYLDPQIARVVVENLKPPVPEGQADVSSLSEREIDVLKLIVEGKSNQEIAQTLYLSTNTIKTHVRGIMNKLSVDDRVQAAVIALRSGLVEGHHHHHH,soluble
8,SLTDSAAPRLHVQALSADCAEAARRWAERLGLPLEADDEAEFAVQVGEQGLQVLQLGADSPGPVRVDFVEGASAHRRKFGGGSGQMIAKAVGVQPGIRPRVLDATAGLGQDGFVLASLGCEVTLVERQPLIAALLEDGLERARRDPDVAPIAARMRLLGGNSADLMRAWDGEAPQVIYLDPMFPHRDKSALVKKEMRLFRPLVGDDLDAPALLQAALALASHRVVVKRPRKAPIIEGPKPGYSLEGKSSRYDIYPKKALGK,soluble
9,MGHHHHHHSHMPKAKKVDAVGPAADADITKPELVVPSEDPKTEEIESVEEKTVEKSTEKPVDKKGGRPVRGKKSPGSDEEAMDGEYEADEEEAALEPRRSTRGKRSYDQETGGRSVRKVVKKAKEVNKKPERAPSARGRGQKPAIGNDSTTEDGEEKKSGKNASDTDSDEEAKVVKRPTSGRMSGAPPSARMLALKKKNHDDSE,not soluble
10,MPFIDIQSKVGINIDKWLLLQSSKQPYRWTTSCHAFEKEWVECSHGIGQIRAQKECKLEYEDFYECMHRNKLRQRLQAIQEQKKKLEKEGVYKAPDFTKDSNTP,not soluble
11,MMEDNKMTESEMKFRDTTIRNFFDKEDRLKSIPGQKKKKLVLLEHLISKLNAENQYTEKEINTFIKQYHDDFCTIRREFIVQGFMNREDNMYCINGREVWTKWEELK,not soluble
12,MSVPPGSIIVSDWHRCPDSREFFSKILHKKRRRKFGKTGVGKSALAARLAGLDLPKMHYETTGIETTVVFWPVRLKESGRVLFFRFELWDCGESAMRRFDHMLLSCKEKVDAILFLFSFTDRGSFDDLTNQISRITEPSDRVVKLVVGTKRDGERRDTFSGGVGSSGFPCGR,not soluble
13,MGVRLAVRCFVVDGVLIDTGAKSMENEFTSFFQQQDIDQVVITHFHEDHTGCAAFLQRSMGLPIYMNEPMIEYCRQKADYPLYRKIFWGKRDPFAAKPIGATFSSRNATWDVIPTPGHAIDHVVFLNRETGQLFSGDLYCQEKTKVILREEDIPTIIASLQHVLTYDFGDVFCAHAGYLPLEHHHHHH,not soluble
14,MGSDKIHHHHHHMESLIESNINFSIFFYNPNIHPVKEYLIRKEENIRFAEKHNIPFIDADYDTDNWFARAKGMENEPERGIRCTMCFDMRFERTALYAYENGFSLISSSLGISRWKNMAQINDCGIRAASHYPDIQYWDYNWRKNGGSSRMIEISKREEFYQQEYCGCVYSLRDTNRWRMSNGRDRIKIGVKFYSNAMEND,not soluble
15,MGSDKIHHHHHHMINAPKTCTCYNGCVGGPSRPAGHPRRRTDKPRWRWTFDSGRRTPSVRIRQLVRGTVPWESLEAVARELGARYDQDTVRVVFLDADNWLSTPCVVNDRWFVKVISEQNALVHAVFTGARNLGMFSSGTEGFFERFDGPVAMAEHERDATRDLRALGVNAPRPIEAFEVDGFGVLVLDYLPAFTPLDEVPAADVAAHAPAVFEALSTMHANGVAHGDLRAENVLVSDGDLYFIDATNVDTDAIADARAYDLACALAALEPLIDAQTVVRIARESYTVDEAAADVSTTMDALLRAQDFLGFVQLRPDHDFDTAALTGHIGMAATNAQRGL,not soluble
16,MGSDKIHHHHHHMLQTLQKDAIELLKTLIKTESFSKEEHNTAEILNTFLVERGVETIREKNNVWAFNKHFDKNKPTILLNSHHDTVKPNPGYTNDPFEPIVKDGKLFGLGSNDAGGCLVSLIATFLHFYNETNLKYNFCIAATAEEEISGFDGLELVYPKLGPIDFAIVGEPTLMDIAVAEKGLMVVDCVAIGKAGHAAREEGENAIYIALKDIEWIRNYKFERVSPHLGPMKMSVTIINAGYQHNVVPEKCHFTIDVRITEEYKNEEVLKIIDDNIQSEVNPRSVRLRPSFIDPNHELVHAAIKHGAKTYGSPTTSDQALIPVPSVKMGPGNSARSHTANEFIWLIEIEEGIEKYIKVLSEIVLA,not soluble
17,HMLLTTSRKPSQRTRSFSQRLSRIMGWRYINRGKMSLRDVLIEARGPVAVVSERHGNPARITFLDERGGERGYILFNPSFEMKKPELADKAVRVSSCPPGSEGLCNLMGLEVDESSSRDAWSIRTDEEYAWVMELMDARGTPAGFKLLIRDFRVGE,soluble
18,MGSDKIHHHHHHMMFGYIKPLKCELKVKEYEEFRGYYCGVCKALKKYSIIPRFLLTYEAASLGLLLSSLNNSDLKRKKELCIFTLKKVDFYSSSEIDEVARVFTALLREKLKDNYIDRKNPVYLFASAFLKKDPEISSLFENFYEMEKKEQDFKILAEEQGKIVGTILSKMVKEETQRKILYYLGLSLGKWLYIVDALDDFEKDKRKNVFNPLVKKYNGDLEKARSELRPHLKKCIDEMWKAYDLLDIKRNKTILDNIVYLGIPFITENVLVGKTCNLNHSTIL,not soluble
19,MKDAKGIDKQWVILNELASKISKVRPLPEDVYSKLRIANNIITYYLLDEHADFEVLRDAEKEISKIQVILFGLADQDVSKEYLIKMGQALRNEIDLEFPLKQTAFNTEVKRKKGSETIRIKMPVEVQIEVLGELSEHNGVIFELSQDDEQKILVEGVKERITSALKDFSVIWKFQDNLEHHHHHH,not soluble
20,MFSPSKFRKQVNESESVSNCESTTSNSRRILDQHAGLPISSAFRTEASDIGHHFSTKMYFKILSPNNVFALMGDNEFKTSFKIFTIFEPTSTPNGKIQSLITISYKINNVLFKMEKEIFIEKVNIFSLELHIFNFQSTNRSNPASESIHQLDLSSEALVTSTLNIRGNKITTTLRPRTSPYKRAGDASMSREDLRSPDSVSTFTTVLHVFHKVFQVAATYTIRENRSERQTKVKLESLERRLKANEKARKEIEAEAEKWKDRATRNSKRLPELELELAETVQAKEEWQVKSQEMEIQNKQLVEELNEVQKKLEEIENSQKTFHQKVVSTLNLDEEYFQNPDEEQDGSLSQFNMDVLEQEIVKYQEKCISLKQENEILKEKLQQLSSSLTVNQNHVSTLMDHLEINKEQSREIQGICKKEIAIRQDHENRINHDVTLLNSLINEQKMELEMLKAEIRCLRSYSQEMSQSNKNNIILLKSAETERKSLLETLTVLLNSEEEATENNVKRTIRDLVRERDTEQTKRFEAEKAASNAEGVLLEQAKQQRNALFRARVSEEEYSKSMEKIEELEQELLASDLERKNLEHKIASLENCISKVSQLLNVNVGGVFDAIFDRIEELIAQESVYRVVVNENRLISENIFRGLQSVRKDFQSGKSGGGSDKKQPASPVAAAAKIIQERHTLKTIDKMDKLNKDLLATMTIETLKAADIEKTNLKKRMNEQDARIRQLEREKKEGERIRSIIAKWEKRNIPKTEKSSPMKKVPPIENFRAKSQTSITGLSPVL,not soluble
21,MKDAQLNTLCQRHQAVLINSASNSITVAVVDAPSHALLDALHFATQKQIDIVCWTRQQMENHRHKPDQAPSANAAKGGETAAQLLNQTLRSAMAKRASDIHLEPGASRYRIRLRIDGVLHILQDIAKETGLALTARLKVLGNLDIAEHRLPQDGQFTVDLAGDSISFRIATLPCKEGEKVVLRLLHQVEQTLDLDTLGMYGAQLTAFRQALQQPQGLVLVTGPTGSGKTVTLYSALQTRNTPGINLCSVEDPIEIPLDGINQTQIHPRAGLTFQNVLRALLRQDPDIIMVGEIRDGDTAEIAIKAAQTGHLVLSTLHTNSTSETLIRLQQMGVARWMISSALTLVVAQRLVRKLCPHCKQRLSDPVVLSPNLWPSAIPRWQASGCQHCYHGFYGRTALFEVLTVTPALRQLIASGASAQALEAHLQQTGTGTLFENGCRAVEQGMTSFEEILCVLGMPHER,not soluble
